The supplement of paper PMC11865577

Key:
Experiment in all cases: pull-down binding Z-score (relative to library population); higher = stronger binding
Details in all cases: RNA library: Library-2
[1] = test system: TO-3-N3 (biotin conjugate)
Summary of the method: (§1)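 Streptavidin beads bearing 100 pmol of a biotin-conjugated small molecule were incubated for 60 min at 25 °C with 1 μg of heat-folded, Cy5- or Cy3-end-labelled RNA library in phosphate/NaCl/KCl buffer. Hot SDS eluted the RNA that stayed bound after three washes, and this RNA was hybridised for 20 h at 55.5 °C to a DNA barcode microarray. Binding was expressed as a Z-score against the library mean and standard deviation, after subtraction of a beads-only signal and trimmed averaging of barcoded replicate probes.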

[2] = test system: TO-3-N3-2 (biotin conjugate)
Summary of the method: as §1

[3] = test system: TO-N3-2 (biotin conjugate)
Summary of the method: as §1

TO-N3 (biotin conjugate) = test system: TO-N3 (biotin conjugate)
Summary of the method: as §1

Row | Sequence | pull-down binding Z-score [1] | pull-down binding Z-score [2] | pull-down binding Z-score [3] | pull-down binding Z-score (TO-N3 (biotin conjugate))
1 | UGAGUACUGUAGGCACGGCACUUGUGAAAGAUCAGAAGCUGGUGUUUGUGUAUCUACUAGUGGUAGAUGGGUACUUA [DMSMaPseq_invitro_SARS-CoV-2_Multi_29_ComplexLevel_1] | -0.254 | -0.0976 | 0.628 | 0.0497
2 | GCGCUGCCAGAAACUGGCUAAGCGC [bulge-UA] | -0.669 | -0.353 | -0.61 | -0.911
3 | CUGGGAAACUGUUAAAAUUCAGUGGUCCCAG [IAV_invivo_PB2_1_Motif_27+IAV_invivo_PB2_1_Motif_27] | -0.682 | -0.0981 | -0.97 | -0.972
4 | UUAACGUGAGUCUUGUAAAACCUUCUUUUUACGUUUACUCUCGUGUUAA [DMSMaPseq_invitro_SARS-CoV-2_Motif_474] | -0.223 | -0.0657 | -1.02 | -0.275
5 | CAGGUACAGUAGAUACUUACCUG [U1snRNP5ss-19] | -0.605 | -0.722 | -1.09 | -0.984
6 | UAACAGUUACACCGGAAGCCAAUAUGGAUCAAGAAUCCUUUGGUGGUGCAUCGUGUUG | -0.833 | -0.365 | -0.452 | -0.9
7 | GUACUUAAUGAGAAGUGC [SHAPE_invivo_SARS-CoV-2_Motif_56] | -0.216 | -0.138 | -0.836 | -0.461
8 | UAUAUGCCUUAUUUCUUUACUUUAUUGCUACAAUUGUGUACUUUUACUAGAAGUACAAAUUCUAGAAUUAAAGCAUCUA [DMSMaPseq_invitro_SARS-CoV-2_Motif_128] | -0.237 | 0.0402 | -0.67 | -0.348
9 | CUGCCUAUAUGGAAG | -0.492 | -0.364 | -0.645 | -0.773
10 | UAGCUGGUUUUGCUA [SHAPE_invivo_SARS-CoV-2_Motif_257] | 0.71 | 0.105 | -0.612 | 0.281
11 | CCGGUAAGGACGAUACUUACCUG [U1snRNP5ss-23] | 0.363 | -0.205 | -0.181 | 0.0948
12 | AACGGGGCGGGCCUGGGCGGGGUAA [G4_2A2_VEGF-Pu22-del] | 8.83 | 11 | 5.22 | 7.15
13 | AAAUUACCAUUUCAUCUUUUAAAUGGGAUUU | 0.204 | -0.151 | -1.21 | -0.0633
14 | GGUCUGCAGGACU [IAV_invivo_PA_3_Motif_27+IAV_invivo_PA_3_Motif_27] | 0.0311 | -0.237 | -0.231 | -0.125
15 | CUUUAGUAAUUACCUAAAGAGACGUGUAGUCUUUAAUGGUGUUUCCUUUAG | -0.924 | -0.575 | -1.17 | -1.09
16 | AAGGUAAGAGGGAUACUUACCUG [U1snRNP5ss-26] | -0.614 | -0.286 | -0.262 | -0.673
17 | AAUUAUGAAGAUUUACUCAUUCGUAAGUCUAAUCAUAAUU | -0.0299 | -0.3 | -0.858 | -0.429

Row | Sequence | pull-down binding Z-score [1] | pull-down binding Z-score [2] | pull-down binding Z-score [3] | pull-down binding Z-score (TO-N3 (biotin conjugate))
18 | ACACUAAUUCUUUCACACGUGGUGU [DMSMaPseq_invitro_SARS-CoV-2_Motif_381] | -0.0462 | -0.0877 | -0.973 | -0.398
19 | GCUUUGAUAUGGAACGUUAAAGAUUUCAUGUCAUUGU | -0.179 | -0.217 | -0.395 | -0.204
20 | CUAACAAUCUAGUUGUAAUGGCCUACAUUACAGGUGGUGUUGUUCAG [SHAPE_invivo_SARS-CoV-2_Motif_39] | -0.352 | -0.607 | -0.761 | -0.379
21 | ACAGAGACUGAUAGUAAGUUCUCUGU [IAV_invivo_NA_6_Motif_16+IAV_invivo_NA_6_Motif_16] | -0.363 | -0.328 | -1.08 | -0.696
22 | ACAACAACCAUAAAACCAGUUACUUAUAAAUUGGAUGGUGUUGU | -0.686 | -0.38 | -1.37 | -1.03
23 | UCUUUAAGGAAGGAAGUUCUGUUGAAUUAAAACACUUCUUCUUUGCUCAGGA [DMSMaPseq_invitro_SARS-CoV-2_Motif_265] | -0.904 | -0.179 | -0.953 | -1.23
24 | CUCUCAUUUUGUUAACUUAGACAACCUGAGAG | -0.827 | -0.35 | -1.2 | -1.13
25 | CCUAUACUGUUACUAGAUCAGGCAUUAGUGUCUGAUGUUGGUGAUAGUGCGG [DMSMaPseq_invitro_SARS-CoV-2_Motif_147] | 0.0141 | 0.0824 | -0.184 | 0.0062
26 | AAAGUGCUUUUGUUAAUUUAAAACAAUUACCAUUUU [SHAPE_invivo_SARS-CoV-2_Motif_363] | -0.825 | -0.408 | -1.63 | -1.18
27 | UCCUCAGUUUUACAUUCAACUCAGGA | -0.555 | -0.225 | -0.699 | -0.757
28 | GUUGUCGCUUCCAAGAAAAGGACGAAGAUGACAAU [SHAPE_invitro_SARS-CoV-2_Motif_248] | 0.276 | 0.224 | 0.292 | 0.141
29 | GGGGUGUACAUCAAUACUGCCUU [IAV_invivo_PA_3_Motif_19+IAV_invivo_PA_3_Motif_19] | 1.11 | 0.332 | 0.595 | 1.4
30 | AACAGCAGACAACCCUUAAGGGUGUAGAAGCUGUU | -0.872 | -0.692 | -0.918 | -1.19
31 | UACUAAUAUGUUUACACCACUAAUUCAACCUAUUGGUGCUUUGGACAUAUCAGCAUCUAUAGUAGCUGGUGGUAUUGUAGCUAUCGUAGUA [SHAPE_invivo_SARS-CoV-2_Motif_188] | 0.0327 | 0.253 | 0.354 | 0.303
32 | UCAUACUGAAAGCGAACUUCAGUGUGA [IAV_invivo_NS1_NEP_8_Motif_9+IAV_invivo_NS1_NEP_8_Motif_9] | -0.0847 | -0.294 | -1.16 | -0.352
33 | GGAGGAGGAGGAGGAGGA [G4_r(GGA)6] | 4.17 | 7.36 | -1.68 | 2.99
34 | CCCUAAGACUAAAAAUGUUACAAAAGAAAAUGACUCUAAAGAGGGUUUUUUCACUUACAUUUGUGGG [DMSMaPseq_invitro_SARS-CoV-2_Motif_371] | -0.845 | -0.271 | -0.589 | -1.03
